Molecular target: T1, PUF4 RNA-binding domain (Saccharomyces cerevisiae, UniProt P25339 537-888)
T1 sequence: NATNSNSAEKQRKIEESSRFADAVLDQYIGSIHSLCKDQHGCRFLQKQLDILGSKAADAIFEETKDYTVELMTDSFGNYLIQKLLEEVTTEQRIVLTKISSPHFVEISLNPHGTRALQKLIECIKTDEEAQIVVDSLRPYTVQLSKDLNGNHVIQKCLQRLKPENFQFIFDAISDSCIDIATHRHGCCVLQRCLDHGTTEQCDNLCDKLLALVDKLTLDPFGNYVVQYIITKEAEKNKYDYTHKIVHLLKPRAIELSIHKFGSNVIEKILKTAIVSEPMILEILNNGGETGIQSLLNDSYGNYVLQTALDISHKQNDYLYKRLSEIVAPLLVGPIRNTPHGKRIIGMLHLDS
Assay: Mg; RNA-MaP; 20 mM Na-HEPES pH 7.4, 30 mM KOAc, 0.75 mM MgCl2, 0.1% Tween-20, 5% glycerol, 0.1 mg/mL BSA, 2 mM DTT; 25 C; 0.0125-409.6 nM protein
Conditions: tags: N-His6-TEV cleaved; C-SNAP kept, Cy3B-labelled; label: tethered on chip by stalled RNA polymerase

With UCUCUUUUUAUAUAUAAGUCUCUU (ssRNA) [Id_ii_S1_P3E.3_K3.2_C3.2_[C-2T]_H3.2_A3.1_F3.1_T3.2_[T9A]_[A10G]] the Kd was 1550 nM.

With UCUCUUUUUAUAUAUAAUUCUCUU (ssRNA) [Id_ii_S1_P3E.3_K3.2_C3.2_[C-2T]_H3.2_A3.1_F3.1_T3.2_[T9A]_[A10T]] the Kd was 968 nM.

Work on UCUCUUUUUAUAUAUAUGUCUCUU (ssRNA) [Id_ii_S1_P3E.3_K3.2_C3.2_[C-2T]_H3.2_A3.1_F3.1_T3.2_[A10G]] yielded a Kd of 1060 nM.

UCUCUUUUUAUAUAUAUCUCUCUU (ssRNA) [Id_ii_S1_P3E.3_K3.2_C3.2_[C-2T]_H3.2_A3.1_F3.1_T3.2_[A10C]] was tested, and the Kd was 759 nM.

UCUCUUAGUAUUUUAUCUCUU (ssRNA) [Ib_S1_P4E.1_K4.1_C4.1_H4.1_[T1A]_A4.1_[A6T]_F4.1_T4.1] showed a Kd of 798 nM.

With UCUCUUUUUAUAUAUAUUUCUCUU (ssRNA) [Id_ii_S1_P3E.3_K3.2_C3.2_[C-2T]_H3.2_A3.1_F3.1_T3.2_[A10T]] the Kd was 457 nM.

Work on UCUCUUUUUAUAUAUAUAUCUCUU (ssRNA) [Id_ii_S1_P3E.3_K3.2_C3.2_[C-2T]_H3.2_A3.1_F3.1_T3.2] yielded a Kd of 510 nM.

UCUCUUAGUAUAUAUAGCUCUCUU (ssRNA) [Id_ii_S1_P3E.3_K3.2_C3.2_[C-2A]_[T-1G]_H3.2_A3.1_F3.1_T3.2_[T9G]_[A10C]] was tested, and the Kd was 494 nM.

UCUCUUAGUAUAUAUAGUUCUCUU (ssRNA) [Id_ii_S1_P3E.3_K3.2_C3.2_[C-2A]_[T-1G]_H3.2_A3.1_F3.1_T3.2_[T9G]_[A10T]] showed a Kd of 156 nM.

Binder UCUCUUAGUAUAUAUACCUCUCUU (ssRNA) [Id_ii_S1_P3E.3_K3.2_C3.2_[C-2A]_[T-1G]_H3.2_A3.1_F3.1_T3.2_[T9C]_[A10C]] has a Kd of 954 nM.

Binder UCUCUUAGUAUAUAUAAAUCUCUU (ssRNA) [Id_ii_S1_P3E.3_K3.2_C3.2_[C-2A]_[T-1G]_H3.2_A3.1_F3.1_T3.2_[T9A]] has a Kd of 877 nM.

Work on UCUCUUAGUAUAUAUAUGUCUCUU (ssRNA) [Id_ii_S1_P3E.3_K3.2_C3.2_[C-2A]_[T-1G]_H3.2_A3.1_F3.1_T3.2_[A10G]] yielded a Kd of 502 nM.

Work on UCUCUUAGUAUAUAUAUCUCUCUU (ssRNA) [Id_ii_S1_P3E.3_K3.2_C3.2_[C-2A]_[T-1G]_H3.2_A3.1_F3.1_T3.2_[A10C]] yielded a Kd of 652 nM.

UCUCUUAGUAUAUAUAUUUCUCUU (ssRNA) [Id_ii_S1_P3E.3_K3.2_C3.2_[C-2A]_[T-1G]_H3.2_A3.1_F3.1_T3.2_[A10T]] was tested, and the Kd was 452 nM.

Binder UCUCUUACUAUAUAUAGCUCUCUU (ssRNA) [Id_ii_S1_P3E.3_K3.2_C3.2_[C-2A]_[T-1C]_H3.2_A3.1_F3.1_T3.2_[T9G]_[A10C]] has a Kd of 2200 nM.

Work on UCUCUUCGUAUAAUAUCUCUU (ssRNA) [Ib_S1_P4E.1_K4.1_C4.1_H4.1_[T1C]_A4.1_[T7A]_F4.1_T4.1] yielded a Kd of 131 nM.

UCUCUUACUAUAUAUACCUCUCUU (ssRNA) [Id_ii_S1_P3E.3_K3.2_C3.2_[C-2A]_[T-1C]_H3.2_A3.1_F3.1_T3.2_[T9C]_[A10C]] was tested, and the Kd was 848 nM.

With UCUCUUACUAUAUAUACUUCUCUU (ssRNA) [Id_ii_S1_P3E.3_K3.2_C3.2_[C-2A]_[T-1C]_H3.2_A3.1_F3.1_T3.2_[T9C]_[A10T]] the Kd was 918 nM.

UCUCUUACUAUAUAUACAUCUCUU (ssRNA) [Id_ii_S1_P3E.3_K3.2_C3.2_[C-2A]_[T-1C]_H3.2_A3.1_F3.1_T3.2_[T9C]] gave a Kd of 1290 nM.

UCUCUUACUAUAUAUAAAUCUCUU (ssRNA) [Id_ii_S1_P3E.3_K3.2_C3.2_[C-2A]_[T-1C]_H3.2_A3.1_F3.1_T3.2_[T9A]] was tested, and the Kd was 1360 nM.

Binder UCUCUUACUAUAUAUAUGUCUCUU (ssRNA) [Id_ii_S1_P3E.3_K3.2_C3.2_[C-2A]_[T-1C]_H3.2_A3.1_F3.1_T3.2_[A10G]] has a Kd of 968 nM.

Binder UCUCUUACUAUAUAUAUCUCUCUU (ssRNA) [Id_ii_S1_P3E.3_K3.2_C3.2_[C-2A]_[T-1C]_H3.2_A3.1_F3.1_T3.2_[A10C]] has a Kd of 886 nM.

For UCUCUUAAUAUAUAUAGCUCUCUU (ssRNA) [Id_ii_S1_P3E.3_K3.2_C3.2_[C-2A]_[T-1A]_H3.2_A3.1_F3.1_T3.2_[T9G]_[A10C]], the Kd was 633 nM.

Binder UCUCUUAAUAUAUAUAGUUCUCUU (ssRNA) [Id_ii_S1_P3E.3_K3.2_C3.2_[C-2A]_[T-1A]_H3.2_A3.1_F3.1_T3.2_[T9G]_[A10T]] has a Kd of 458 nM.

In the case of UCUCUUAAUAUAUAUACGUCUCUU (ssRNA) [Id_ii_S1_P3E.3_K3.2_C3.2_[C-2A]_[T-1A]_H3.2_A3.1_F3.1_T3.2_[T9C]_[A10G]], the Kd is reported as 1980 nM.

Binder UCUCUUAAUAUAUAUACCUCUCUU (ssRNA) [Id_ii_S1_P3E.3_K3.2_C3.2_[C-2A]_[T-1A]_H3.2_A3.1_F3.1_T3.2_[T9C]_[A10C]] has a Kd of 2250 nM.

For UCUCUUAGUAUAAUAUCUCUU (ssRNA) [Ib_S1_P4E.1_K4.1_C4.1_H4.1_[T1A]_A4.1_[T7A]_F4.1_T4.1], the Kd was 126 nM.

Binder UCUCUUAAUAUAUAUACUUCUCUU (ssRNA) [Id_ii_S1_P3E.3_K3.2_C3.2_[C-2A]_[T-1A]_H3.2_A3.1_F3.1_T3.2_[T9C]_[A10T]] has a Kd of 344 nM.

With UCUCUUAAUAUAUAUACAUCUCUU (ssRNA) [Id_ii_S1_P3E.3_K3.2_C3.2_[C-2A]_[T-1A]_H3.2_A3.1_F3.1_T3.2_[T9C]] the Kd was 886 nM.

UCUCUUAAUAUAUAUAAAUCUCUU (ssRNA) [Id_ii_S1_P3E.3_K3.2_C3.2_[C-2A]_[T-1A]_H3.2_A3.1_F3.1_T3.2_[T9A]] gave a Kd of 1290 nM.

With UCUCUUAAUAUAUAUAUGUCUCUU (ssRNA) [Id_ii_S1_P3E.3_K3.2_C3.2_[C-2A]_[T-1A]_H3.2_A3.1_F3.1_T3.2_[A10G]] the Kd was 698 nM.
